Test results published in publication PMC13265731, “In vitro reconstitution defines the mechanistic basis of HSET motor activity regulation by IntraFlagellar Transport proteins” (Communications Biology, 2026).

B1: GFP-HSET (full-length N-terminal hexa-histidine-tagged GFP-HSET) (natural protein, human, UniProt Q9BW19 1-673, looked up)
chain: MDPQRSPLLEVKGNIELKRPLIKAPSQLPLSGSRLKRRPDQMEDGLEPEKKRTRGLGATTKITTSHPRVPSLTTVPQTQGQTTAQKVSKKTGPRCSTAIATGLKNQKPVPAVPVQKSGTSGVPPMAGGKKPSKRPAWDLKGQLCDLNAELKRCRERTQTLDQENQQLQDQLRDAQQQVKALGTERTTLEGHLAKVQAQAEQGQQELKNLRACVLELEERLSTQEGLVQELQKKQVELQEERRGLMSQLEEKERRLQTSEAALSSSQAEVASLRQETVAQAALLTEREERLHGLEMERRRLHNQLQELKGNIRVFCRVRPVLPGEPTPPPGLLLFPSGPGGPSDPPTRLSLSRSDERRGTLSGAPAPPTRHDFSFDRVFPPGSGQDEVFEEIAMLVQSALDGYPVCIFAYGQTGSGKTFTMEGGPGGDPQLEGLIPRALRHLFSVAQELSGQGWTYSFVASYVEIYNETVRDLLATGTRKGQGGECEIRRAGPGSEELTVTNARYVPVSCEKEVDALLHLARQNRAVARTAQNERSSRSHSVFQLQISGEHSSRGLQCGAPLSLVDLAGSERLDPGLALGPGERERLRETQAINSSLSTLGLVIMALSNKESHVPYRNSKLTYLLQNSLGGSAKMLMFVNISPLEENVSESLNSLRFASKVNQCVIGTAQANRK
notes: HSET (KIFC1), human mitotic kinesin-14, full length; Dimer by mass photometry (measured 232 ± 34 kDa, expected 210 kDa for the GFP-HSET dimer); also called KIFC1; kinesin-14; source: Sf9 insect cells, baculovirus, purified (Ni-NTA); not shown: GFP, N-terminal, kept
B2: IFT52/70 complex (SNAP-IFT52/SNAP-IFT70) (complex)
chain 1: MEKELRSTILFNAYKKEVFTTNTGYKSLQKRLRSNWKIQSLKDEITSEKLIGVKLWITAGPREKFTAAEFEVLKKYLDSGGDILVMLGEGGESRFDTNINFLLEEYGIMVNNDAVVRNVYYKYFHPKEALVSDGVLNREISRAAGKAVPGVIDEENSGNNAQALTFVYPFGATLSVMKPAVAVLSTGSVCFPLNRPILAFYHSKNQGFGKLAVLGSCHMFSDQYLDKEENSKIMDVVFQWLTTGDIHLNQIDAEDPEISDYTMVPDTATLSEQLRVCLQEGDENPRDFTTLFDLSIYQLDTTCLPKVIKAHEELNVKHEPLQLVQPQFEMPLPALQPAVFPPSFRELPPPPLELFDLDETFSSEKARLAQITNKCTDEDLEFYVRKCGDILGVTSKLPKDQQDAKHILEHIFFQVVEFKKLNQEAH
chain 2: MAGLSGAQIPDGEFTAVVYRLIRNARYAEAVQLLGGELQRSPRSRAGLSLLGYCYYRLQEFALAAECYEQLGQLHPELEQYRLYQAQALYKACLYAEATRVAFLLLDNPAYHSRVLRLQAAIKYSEGDLPGSRSLVEQLPSREGGEESGGENETDGQINLGCLLYKEGQYEAACSKFFAALQASGYQPDLSYNLALAYYSSRQYASALKHIAEIIERGIRQHPELGVGMTTEGIDVRSVGNTLVLHQTALVEAFNLKAAIEYQLRNYEAAQEALTDMPPRAEEELDPVTLHNQALMNMDARPTEGFEKLQFLLQQNPFPPETFGNLLLLYCKYEYFDLAADVLAENAHLIYKFLTPYLYDFLDAVITCQTAPEEAFIKLDGLAGMLTEVLRKLTIQVQEARHNRDDEAIKKAVNEYDETMEKYIPVLMAQAKIYWNLENYPMVEKIFRKSVEFCNDHDVWKLNVAHVLFMQENKYKEAIGFYEPIVKKHYDNILNVSAIVLANLCVSYIMTSQNEEAEELMRKIEKEEEQLSYDDPDKKMYHLCIVNLVIGTLYCAKGNYDFGISRVIKSLEPYNKKLGTDTWYYAKRCFLSLLENMSKHTIMLRDSVIQECVQFLEHCELHGRNIPAVIEQPLEEERMHVGKNTVTYESRQLKALIYEIIGWNI
modifications: SNAP-Surface Alexa Fluor 647 on the SNAP tag | SNAP-Surface Alexa Fluor 647 on the SNAP tag

Columns and labels:
[1] = target: the molecule itself; experiment: mass photometry; in solution; pre-incubated 30 min at 30 °C (1.2 µM GFP-HSET, 2.4 µM IFT52/70) in 20 mM Na-Hepes pH 7.2, 150 mM NaCl, 2 mM MgCl2, 10% glycerol, 5 mM β-mercaptoethanol; measured at 2.5 nM GFP-HSET and 5 nM IFT52/70, alone or mixed, 25 °C
[2] = target: B1; experiment: cell-based or functional assay
[3] = target: B1; experiment: mass photometry; in solution; pre-incubated 30 min at 30 °C (1.2 µM GFP-HSET, 2.4 µM IFT52/70) in 20 mM Na-Hepes pH 7.2, 150 mM NaCl, 2 mM MgCl2, 10% glycerol, 5 mM β-mercaptoethanol; measured at 2.5 nM GFP-HSET and 5 nM IFT52/70, alone or mixed, 25 °C; conditions: both partners purified

Row | Binder | stoichiometry N [1] | GFP-HSET (5 nM) fluorescence at microtubule minus ends relative to the lattice, with IFT52/70 (10 nM) (1.38 versus 2.34) [2] [fold] | stoichiometry N [3]
1 | B1 | 2 |  | 
2 | B2 |  | 1.7 | 2 IFT52/70 dimers per GFP-HSET dimer
